Article PMC7337494 (The Journal of Cell Biology, 2020)

Target: the molecule itself
Experiment: AUC

B1: 217-MGD (extended OPA1-MGD, residues 217–580 and 938–960 connected by the artificial linker) (domain or fragment)
chain: not shown
stoichiometry N: 2
